Results on seven molecules are retold here after patent US10266566 (NORTH CAROLINA STATE UNIVERSITY, dated 2019).

Sequences and labels used below:
B1: HWMetCitGWMetV (peptide)
peptide: H[Trp(1-Me)][Cit]G[Trp(1-Me)]V-{Toyopearl AF‑Amino‑650M resin}
notes: Variant of HWRGWV on Toyopearl resin; also called HWMetCitGWMetV-Toyopearl
B2: Ac-HWMetCitGWMetV (peptide)
peptide: Ac-H[Trp(1-Me)][Cit]G[Trp(1-Me)]V-{Toyopearl AF‑Amino‑650M resin}
notes: Acetylated HWMetCitGWMetV on Toyopearl resin; also called Ac-HWMetCitGWMetV-Toyopearl
B3: HWRGWV (peptide)
peptide: HWRGWV-{Toyopearl AF‑Amino‑650M resin}
modifications: not fully specified
notes: Synthetic hexapeptide made directly on Toyopearl AF-Amino-650M resin after a first Fmoc-Ala-OH coupling, about 0.12 meq/g; also called HWRGWV-Toyopearl; original peptide ligand
B4: HFMetCitCitHL (peptide)
peptide: H[Phe(4-Me)][Cit][Cit]HL-{Toyopearl AF‑Amino‑650M resin}
notes: Variant of HFRRHL on Toyopearl resin; also called HFMetCitCitHL-Toyopearl
B5: HYFKFD (peptide)
peptide: HYFKFD-{Toyopearl AF‑Amino‑650M resin}
notes: Synthetic hexapeptide on Toyopearl resin; also called HYFKFD-Toyopearl
B6: HFRRHL (peptide)
peptide: HFRRHL-{Toyopearl AF‑Amino‑650M resin}
notes: Synthetic hexapeptide on Toyopearl resin; also called HFRRHL-Toyopearl
B7: HYMetFMetKMet2FMetD (peptide)
peptide: H[Tyr(Me)][Phe(4-Me)][Lys(Me2)][Phe(4-Me)]D-{Toyopearl AF‑Amino‑650M resin}
notes: Variant of HYFKFD on Toyopearl resin, used as a negative control; also called HYMetFMetK(Met)2FMetD-Toyopearl

*1 amine or outer side, *2 acyl side, *3 side chain or, on linkers, in order; H or OH if unused. Where no end group is shown, it is not given here. [ ]: non-standard residue; d: D form. Tyr(Me) = O-methyl-tyrosine, COc1ccc(C[C@H](N[*:1])C(=O)[*:2])cc1; Trp(1-Me) = Cn1cc(C[C@H](N)C(=O)O)c2ccccc21; Phe(4-Me) = Cc1ccc(C[C@H](N)C(=O)O)cc1; Lys(Me2) = CN(C)CCCC[C@H](N)C(=O)O; Cit = NC(=O)NCCC[C@H](N)C(=O)O

The target of the first experiment is T1, Human polyclonal immunoglobulin G (IgG) (human).
T1 construct: also called hIgG; IVIG
In words: affinity chromatography of Cohn fraction II+III on peptide resin; binding buffer PBS + 0.13M NaCl.
Take B1: the “IgG yield” value amounted to 90%.
For B2, the “IgG yield” value was 93%.
On to B3, for which the “IgG yield” value came out at 85%.

In another experiment the target is T2, albumin (human, UniProt P02768 25-609).
T2 construct: Impurity in the Cohn fraction II+III feed, seen on SDS-PAGE of the eluted fractions
T2 sequence (P02768 25-609 limits assumed): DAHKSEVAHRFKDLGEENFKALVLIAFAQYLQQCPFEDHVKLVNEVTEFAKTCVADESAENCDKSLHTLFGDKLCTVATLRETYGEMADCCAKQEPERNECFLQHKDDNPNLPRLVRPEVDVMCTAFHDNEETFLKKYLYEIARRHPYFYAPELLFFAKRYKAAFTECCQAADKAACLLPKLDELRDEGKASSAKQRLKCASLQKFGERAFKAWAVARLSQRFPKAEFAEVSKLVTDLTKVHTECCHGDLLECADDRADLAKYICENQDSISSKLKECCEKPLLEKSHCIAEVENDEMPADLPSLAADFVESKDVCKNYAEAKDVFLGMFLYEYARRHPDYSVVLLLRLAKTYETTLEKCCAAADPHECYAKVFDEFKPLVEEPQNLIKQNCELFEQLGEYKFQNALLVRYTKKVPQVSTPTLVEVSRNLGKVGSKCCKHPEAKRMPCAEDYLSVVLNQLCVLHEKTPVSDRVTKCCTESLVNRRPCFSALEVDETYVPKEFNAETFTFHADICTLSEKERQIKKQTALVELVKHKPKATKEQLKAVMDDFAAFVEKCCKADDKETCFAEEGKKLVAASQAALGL
In words: SDS-PAGE of fractions eluted from peptide resin loaded with Cohn fraction II+III.
Protocol: Each peptide resin was packed and swollen as described before. […] Toyopearl AF-rProtein A-650F resin was used as a positive control. As per manufacturer's instructions, the chromatographic protocol comprised binding with PBS, pH 7.4 (at a flow rate of 0.05 mL/min) and elution with 0.1M Glycine buffer pH 2.5 (at a flow rate of 0.4 mL/min). […] Fractions were collected and used for analysis of IgG purity and yield as described below.
The original peptide ligands were employed as positive controls. The crude stock of Cohn II+III paste was diluted in PBS to prepare the feed sample and solid particles were removed by filtration prior to injection into the column. […] Fractions were collected and analyzed by Protein G chromatography and SDS-PAGE (FIG. 3) to determine IgG yield and purity respectively.
On to B4, for which the binding result is recorded as “binds”.
For the molecule B1, the binding result is on record as “binds”.
As to B5, the binding result was “binds”.
Same read-out and setting: to B6 belongs “binds”.
Still for that read-out and setting: to B7 belongs “binds”; to B3, “binds”.

Another experiment has as its target T1, Human polyclonal immunoglobulin G (IgG). The experiment is described as follows: affinity chromatography, peptide on Toyopearl resin, pure human IgG load; yield = IgG eluted/IgG loaded, by Protein G chromatography.
Protocol: Each adsorbent thus obtained was packed into a chromatographic column (0.1 mL) and tested for IgG binding. Flowthrough and elution fractions were collected and analyzed by Protein G chromatography to determine IgG yield (Table 2).
B4: the IgG yield came to 90%.
In the case of B1, the IgG yield came out at 90%.
The molecule B5 yielded an IgG yield of 78%.
B6: the IgG yield came to 93%.
B7 displayed an IgG yield of 42%.
On to B3, for which the IgG yield was found to be 95%.

The next experiment shares this target. In words: affinity chromatography of Cohn fraction II+III on peptide resin; binding buffer PBS + 0M NaCl.
As for B1, the “IgG yield” value was found to be 89%.
Still for that read-out and setting: to B2 belongs 91%.
Regarding B3, the “IgG yield” value was found to be 90%.

The next experiment has as its target T2, albumin. The experiment is described as follows: SDS-PAGE of fractions from peptide resin loaded with Cohn fraction II+III at different NaCl.
For B2, the binding result is “binds”.

The next experiment concerns the target T1, Human polyclonal immunoglobulin G (IgG). In words: affinity chromatography of Cohn fraction II+III of human plasma on peptide resin; binding PBS + 0.25M NaCl, elution acetate pH 5.0; yield by Protein G chromatography.
Protocol: (§1) Toyopearl AF-rProtein A-650F resin was used as a positive control. As per manufacturer's instructions, the chromatographic protocol comprised binding with PBS, pH 7.4 (at a flow rate of 0.05 mL/min) and elution with 0.1M Glycine buffer pH 2.5 (at a flow rate of 0.4 mL/min). […] Fractions were collected and used for analysis of IgG purity and yield as described below.
The original peptide ligands were employed as positive controls. The crude stock of Cohn II+III paste was diluted in PBS to prepare the feed sample and solid particles were removed by filtration prior to injection into the column.
Consider B4, for which the “IgG yield” value amounted to 89%.
As to B1, the “IgG yield” value was found to be 91%.
For the molecule B5, the “IgG yield” value turned out to be 54%.
B6: the “IgG yield” value was found to be 91%.
As to B7, the “IgG yield” value was 48%.
On to B3, for which the “IgG yield” value was 85%.

A further experiment shares this target. In words: affinity chromatography, peptide resin, 10 mg/mL hIgG in PBS; 1st run, before any enzyme.
Protocol: (§2) One hundred microliters of feed sample was loaded onto the column at a flow rate of 0.05 mL/min (87 cm/h).
(§3) Each adsorbent was subjected to five consecutive chromatographic runs. First, a solution of pure human polyclonal IgG at 10 mg/mL in PBS was injected to determine IgG yield for each adsorbent prior to contact with any enzyme. […] The resin was then contacted with a solution of α-chymotrypsin in Tris buffer pH 8.5 for 10 minutes. The amount of enzyme loaded onto the column was in a mass ratio of 1:100 peptide:enzyme, as done by Verdoliva et al. [35]. After rinsing the resin, a second injection of IgG was then performed to estimate the loss of binding capacity due to the digestion of the peptide ligand by α-chymotrypsin. The resin was then contacted with the second enzyme solution, i.e., trypsin in Tris buffer pH 8.5, at the same peptide:enzyme ratio. A third IgG injection was finally performed to estimate the residual binding capacity of each resin after the second enzyme treatment.
Turning to B4, the IgG yield amounted to 90%.
Take B1: the IgG yield stood at 90%.
As for B5, the IgG yield was found to be 78%.
Regarding B6, the IgG yield came out at 93%.
As to B7, the IgG yield stood at 52%.
Regarding B3, the IgG yield came to 95%.

A further experiment has the same target. The experiment is described as follows: affinity chromatography of Cohn fraction II+III on peptide resin; binding buffer PBS + 0.25M NaCl.
Protocol: as §1
With B1, the “IgG yield” value was determined as 91%.
In the case of B2, the “IgG yield” value worked out at 94%.
Consider B3, for which the “IgG yield” value was 85%.

For the next experiment the target is unchanged. The experiment is described as follows: affinity chromatography, peptide resin, 10 mg/mL hIgG in PBS; 2nd run, after resin contacted with alpha-chymotrypsin.
Protocol: as §2, §3
Consider B4, for which the IgG yield is 92%.
Consider B1, for which the IgG yield is 91%.
On to B5, for which the IgG yield was 76%.
As to B6, the IgG yield is 78%.
Turning to B7, the IgG yield was determined as 49%.
In turn, B3 displayed an IgG yield of 72%.

The next experiment has the same target. The experiment is described as follows: affinity chromatography, peptide resin, 10 mg/mL hIgG in PBS; 3rd run, after alpha-chymotrypsin and then trypsin.
Protocol: as §2, §3
The molecule B4 returned an IgG yield of 91%.
For B1, the IgG yield amounted to 90%.
B5 returned an IgG yield of 71%.
On to B6, for which the IgG yield was found to be 54%.
Consider B7, for which the IgG yield was 53%.
B3 gave an IgG yield of 36%.
